According to the DeepSol protein solubility set:

Assay: soluble on expression in E. coli; label from the status in PepcDB or PDB records
For “MSLTADTSLSSIQEAINVVQQYNATDPVRLKLFHTPRMVSQGAHFAFCLPTKKPHYKPLLLSQNALDEFNLVQDQDLEKILSGEKVYYSDSIFPYSTVYSGFQFGSFAAQLGDGRVVNLFDLKDKCSGQWQTFQLKGAGMTPFSRFADGKAVLRSSIREFIMSEALHSIGIPSTRAMQLTLLPGTKAQRRNQEPCAVVCRFAPSWIRLGNFNLFRWRHDLKGLIQLSDYCIEELFAGGTQFEGKPDFNIFKRDFFPDTETKIDEQVEKDETEVSTMTGDNISTLSKYDEFFRHVVSLNANTVAHWQAYGFANGVLNTDNTSIMGLTIDYGPFAFLDKFEPSFTPNHDDTAKRYSFANQPSIIWWNLQQFAKDLACLLGPEARDLELLLKGELNSVDDALEKTMIERVQKLVELSANEYKYVFTTRYAQIMSQRLGVDLDLEKCMSSTNLKDIEHAAEKAKEFCDVIVEPLLDILQATKVDYNNFFIHLQNYKGPFFIKDKSDTATLFGAFDEEYLGMFFNSKQLQQMAETEEAFAAGEKVFDANGELRLLNEKLQEIRNWTQDYLTLVPPTETAARASLAKKANPLFVPRSWVLEEVVDDLMYSQRDGLQDPSSELDTSALKKLYLMSVNPYDRTKWDVTLRPELETKWADLSHQDDAKFMMQASCSSEGHHHHHH”, the “soluble on expression in E. coli” value was “soluble”. In the case of “QVQLQESGGGLVQAGGSLRLSCTASRRTGSNWCMGWFRQLAGKEPELVVALNFDYDMTYYADSVKGRFTVSRDSGKNTVYLQMNSLKPEDTAIYYCAARSGGFSSNRELYDGWGQGTQVTVSS”, the “soluble on expression in E. coli” value is reported as “soluble”. For “MSLAKALSLMLAQLNLTVGAIEDNCDKVLAAAAEADRQGADLLVCSELALTGYPPEDLLLRVDLMIRVEAALARLAAWQGACAILVGHPWRDGEALYNAASLYEQGKLVARYFKQDLPNYGVFDEKRYFTAATETCVVPFRGHQLGLLICEDLWQPGPALAAKAAGAELLLTINASPYDQEKPWIRRELMAERCDQTGLPLVYLNQVCGQDELIFDGCSKVFNSQGELTHKLAPFAEELALVRFADGQPVKEREPAAPLEPLAETYQALVLAVRDYVTKNGFHGAVLGLSGGIDSALTLAIAADAIGADKVQAVMMPFRYTAQMSVEDAKEQAERMGVEFNIISIEPMFEGFMAQLAPLFEGTARDTTEENLQARCRGVLLMALSNKRRCIVLTTGNKSEMAVGYATLYGDMAGGFDVLKDVPKTLVFKLCEYRNSVDYVIPQRVIDRPPSAELAPDQVDQDSLPPYDILDAILKRYVEEDASVADMVAEGFEEAVVRKVIRLVDLNEYKRRQAAVGPRITARNFGKDRRYPITSGFGKQNWEGHHHHHH”, the “soluble on expression in E. coli” value was “soluble”. With “MAKLFFRYAAMNSGKSTQLLQIANNYESMDKKVALYTSAIDDRYGVGMITSRLNIQRESNTFDAGFDFLAHDYGDTACVLVDEAQFMTPEQAQQLHRLAHKRNIPVICFGLRTDFQGHPFPGSAWLLSLADDVEEIKTICHCGRKATMHIRIDGDGRRVKEGPQVEIGGEARYRAVCGRCFHHDLEHHHHHH” the “soluble on expression in E. coli” value was “soluble”. With “MGSDKIHHHHHHMGTHTEAMPSTTFAQTAVLSQRQRATLNALSAFPQGAQVSEIAASLGLHVNTVRGHLEELVTKNLVRTAPLPSTGRGRPVLMYHATSATPETVAQEYLSLISLLIQHIDLRQPDEIDEVAKVLGKQWAHSIFADHHLEELNGEQTLITLINYLRHLGFDPEVEKTQDPTTSMLQLRTCPFGSMAHAPLSFVCRAHEGMLSAVEKTGGISFELTPLSAPHQCSIVAQLHGNETIHRQRGEEHPHAGHR” the “soluble on expression in E. coli” value was “not soluble”. With “MNPLSIVIITLNEENRIGRLLEDLTEQTFKNFEVIVVDSNSSDATCEVAQSFSASIPDLTVHKMDKQGVSLGRNTGASLAKHERLLFLDADVRLSPDFLTKALTQLNEKGLEVAGVYMGSKGLPVAHKLGYMTFNIGLFLTQFAFPTAVGACIFSTRRAHKDLLGFDENITLCEDCDYVKRASRTWRFRFLPMTFEFDPRRLEQDGFLRMGYTYLKANVRRFLFGEMRNNEMEYKFGHYSNQKLEHHHHHH” the “soluble on expression in E. coli” value was “soluble”. In the case of “TGVSSFQEILDKGMVFVNRNKGSGTRDLIEELIGNNESIRKNMKGYLWETNTEAGVARAVEQGRADAGITLEYYAIKLGLKYTHINKENYDILISKEFYDSEYGQAFIKNLKGLKDRIKNYPGYSVPDDI”, the “soluble on expression in E. coli” value is reported as “not soluble”. In the case of “MGSDKIHHHHHHMKRINCFIPYGKIEATRQTVAQLAESSLVSQIYLITDDPHAKAIYPCNLIRTENIWSTKTLREIAGYASAHYTLIYTKTEELQLGMYALERFVAIADDTRSGMVYSDYYEKKEGKLNPHPVIDYQKGSLRDDFNFGSLLLYRSSTLQNAIASMDTEYTFAGLYDLRLKVSQNAPLTHINEYLYTEVENDLRKSGEKMFDYVDPKNRSVQIEMEAACTDHLKMIGGYLPPHFKPVRFDEQTFQTEASVIIPVRNRVRTIEDAIRSVLRQEASFPFNLIIIDNHSTDGTSERIQAIAATDLRIIHIQPERDDLGIGGCWNIGIHHSACGKFAIQLDSDDVYSDEHTLRKIVEAFYEQRCAMVVGTYRMTDFDMRTIPPGIIDHKEWTPENGRNNALRINGLGAPRAFYTPLLRKLNLPNTSYGEDYALGLRISREYPIGRIYDVLYLCRRWEDNSDASLDVVKMNNHNIYKDKIRTWELEARLNMERQ”, the “soluble on expression in E. coli” value is reported as “not soluble”. For “MRKEVEQLALMGAMPDETDEPTDVLIDKYADLLGKITKPITLDEAHILIKLFPPTALYGIEWTLLHLIESVYPETEFIKYKELINECNSVEFREMLVQRLNNSQQNKVTNK”, the “soluble on expression in E. coli” value was “not soluble”. With “MEAESAPQAPMSGGRVLKMVTEMGSATVGGISPALSANAAKSFLEATDKEKKTLQGLNDRLGNYIDRVKKLEEQNRKLVADLDELRGKWGKDTSEIKIKYSESLSTARKDIDDAARRKAEVDVKVARHRDDLAEYRSRYEDIQQRRESDREKISQWTNAIADAQSEVEMLRARFKQLTDEEKRVTADNSRIWEELQKARSDLDDETIGRIDFQNQVQTLMEELEFLRRVHEQEVKELQALLAQAPADTREFFKNELALAIRDIKDEYDIIAKQGKQDMESWYKLKVSEVQGSANRANMESTYQRDEVKRMRDNIGDLRGKLGDLENKNSLLEKEVQNLNYQLTDDQRQYEAALNDRDATLRRMREECQTLVAELQALLDTKQMLDAEIAIYRKMLEGEETRVGLTQMVEQAVKTHSLQQQENTDSTRSVRGEVSTKTTFQRSAKGNVTISECDPNGKFIKLENSHRNKDENVGEHKIRRKLDGRREIVYSIPANVVIKPGKNLTIYARDQGGINNPPESLVFDGENTWGIGANVVTSLVNKDGEERATHTQKTIQSGQ” the “soluble on expression in E. coli” value was “not soluble”. With “MAHHHHHHMSMNNPAPSPQAPMAAPLDASATVHPRENLAVSAPPGATGAGHNKRLPEELAEFLHTQPPRMETINERKQLFCTRLYMTPPRVLATEGAERRGETLGASLTATGTTSNDSVVGAPLLRSPPPAVLPAAGAPASLKIAKTVPFSEEEHLAWLCAPASPTESRTSAAVPPEAAASSRGLARTERISHAQSEGVRRHEPDRRAVGATATQQPHLSHGASDAHGNDAPARLQGLVAASMATAPNPATPLALQHGEISYKSSFSVLTSWDALMVAPPLLRTTPRMPSLLTQDVENIGTAAMHLNRSTTVTHACASDDVARIPSTGSRAELLIGTSPATEKGEARQEEARADAVLQQPVFPSSCCTRSPTTVPSRLKYDGHGLSPEDSLHQVEEDSARTFVKHFTNGLVFVDPPWFICPVLLDNCEHPYYMTWLDELEVGSVEEAVAETKAKLLTDA” the “soluble on expression in E. coli” value was “not soluble”. In the case of “KRGRSVLVLDHAKKPGRKILISGGGRCNFTNYDVSASNYLCQNPHFVKSALSQYTNWDFISMVSKHGIEFEERDHGQLFCVDAFTAKDIVKMLLAECDMPNIQQRYQCDVHTIEKTEEGFRLHAGTEPVECESLVVATGGLSMPKLGATPFGYKVAEQ”, the “soluble on expression in E. coli” value is reported as “not soluble”. With “MSLGGEVRGPVAVADFAKHVAQLHADGDIGFSKEYEAIQGEALNDEYPSENSQHPENKGKNRYLNVIAYDHSRVHLRQVPGQKKHLDYINANFIDGYQKPRAFIGTQGPLPGTFDCFWRMVWEQRVAVIVMITNLVERGRRKCDMYWPKDGTETYGIIQVRLVKEDVMATYTVRTLHIKHLKMKKKKQSQMEKTVYQYHYTNWPDHGTPDHPLPVINFVKKSTTANLPDGGPIVVHSSAGVGRTGTFIVLDAMLKQIEAKGSLNVFGFLRYIRAQRNYLVQTEEQYIFIHDALVEAITSGETNEGHHHHHH” the “soluble on expression in E. coli” value was “soluble”. With “MGSDKIHHHHHHMCGHAKGGLTVLVSSRACPPQVQHRYLKTVLYLDCPQEVGDQSSPWWLLNIGYWLYGSACMLCKAAFGIELATEPQMEFSAHKGTTSISLVRDALQGAELRGLDVATVLSHAHIDPRLLDQRYARVPAGTFSRLWIALADLLDDEFFAADSHPLRRGSFKLMAQLALGCDTIGQALKRILAFLRTALDDIYGSVECEGEHAAIIIHDHGELRRVFCYGAWLVLVHGLLCWLCDRRIPIVKLSMRPPQPVDDSDYRMRFCEEIEWRADRTSAVFEKSFLAYKVCQTPVSLPAFLKGTPSNFLVKYRNDDSTSIMIRRRLKLLSPHTWPELDELARDLSMSSSTLQRRLYAEGFTYQRLKDNLRRDISISLLCRAGMTVDGVASEVGFIETSAFHRAFKKWTGITPGAYRRSLLSPRGD” the “soluble on expression in E. coli” value was “not soluble”. For “MSLAEASTVETEFAARVQEFYHDQSDPIQLVVAFKALCAVKALLAAANLEEHGAKSSYFQEEFENWDLETKLWHLVEVLYLYRLAENEEVIAENQYSSISVLQENVLRQNPKLKELLIILGWLQTNSKGVDVPGSLSNTSKWSNTRQALANKDLNVLTTHGHTGETDTKLQNIDPDAPIRQACPVMAEDDLRDSQVFRTIYQLILSGQLQEAIELASSTGNHTLALILLGGTQDFIDPVLDKDFCETTMTDLIVPNKPSGAKHKLLWKQAVFKLSHQLGINKYERLIYDYLSGGDISGGLEVVGDSWENLLIIYLNKICLHVLLNALNSNESTTSIPAPPAESIDQVLNLISKGSNGAAQQSKHPLRIVMGSVMISEIGALISGVLKSLNNNFTTQKVWEEDYLVRVMAHLGLFAHAVGSQVSANDLTQLLTLYVQRLSARGFTDLVPLYLSFIPDDSDAREYYSKFLSSITDPSERTKQLQLVRKLGIDSNGDEERMANVLRRTVERVMADTEAEGHHHHHH”, the “soluble on expression in E. coli” value was “soluble”. In the case of “SWKFSRYVRTQMQELEPWQLKQALKTHQGVLQATYEGLVAINSEGSLYLINDSARAMLNYHQELGNVFTDGIDNPESFSLKGDDYINGLIRVNGKNLVMNRVTLRTSTGEPYGAVFSLRDQNEMHVLSEKISQVTQYMENMRVARHEYQNKLSTISGLLQMGAYDKALSVCLSQAKASQSQLDSLHALNSRPALSALILAKASKANELGVALSIDCQSDLSALSRRLSEEQLCGLIGNLAQNALEAVKGQENGHVHIGISESACEYTIQVSNNGPLLESEFDVLCELGFTTKQNKADHGVGMYLVRSIVEQGNGHMELDSDEQETAFTIYFPKELG”, the “soluble on expression in E. coli” value is reported as “not soluble”. With “MSLIHYIPMFGKIKLTNLEIKMGNELISIKEEGDYFLYLRRDVERVIVGDYLQILPAPARGYGVKLMMVKLKRPIALAPGKSIEGFIQVPVEVSVKVGDSEIDRFGIGREKYALYGTLENGVIVRYCTGYIGNEPNGLGNLKVKIVNKGEDWGFIDRIVFPMLDLMYYSKDKAFYPLIRVEIQEDINVINTGEAPLPNLVSTGEEKSLRFRMRWEGHHHHHH” the “soluble on expression in E. coli” value was “soluble”. In the case of “VNSVTISVEGMTCNSCVWTIEQQIGKVNGVHHIKVSLEEKNATIIYDPKLQTPKTLQEAIDDMGFDAVIHNIEGR”, the “soluble on expression in E. coli” value is reported as “soluble”. In the case of “MSKNRQIQGCEVNECLHLDSTKPKSMLNKVKSVHSGFLGEPCVSVCCVCASSPVFLRRYFEWQPFSPREPHVWSTDRPLKVIDLTHLLFTEQMSDCVLGCTPQHCRLQSPVFARDTVLEVEVLLYSSLRFAHCSVDTRRPAFCSL”, the “soluble on expression in E. coli” value is reported as “not soluble”. For “MSLSILQRLIQQAKNPRGTIGSSMLCIMNTAHTRLTNWALQKVHIKKDAIILDIGCGGGKTIHTLSKRTPLGKIYGIDYSYQAVKNSIQTNIKDVQKQKVIVQQASVSSIPYHTNFFDLITAFQTHYFWPDVEQDIKEVFRVLQPNGSFLLVAETFKIQYHMEKWKTNEELINLFYKTGFTSVKCYEERGCLCVIGTKEGHHHHHH”, the “soluble on expression in E. coli” value was “not soluble”.
